Source: patent US5885797, “Polynucleotide sequences encoding proteins involved in myogenesis” (Fred Hutchinson Cancer Research Center, dated 1999)

Tests used:
VP16-I-mfb = molecular target: T1, VP16-I-mfb (mouse); test: yeast hybrid assay, strain L40, β-galactosidase reporter
T1 chain: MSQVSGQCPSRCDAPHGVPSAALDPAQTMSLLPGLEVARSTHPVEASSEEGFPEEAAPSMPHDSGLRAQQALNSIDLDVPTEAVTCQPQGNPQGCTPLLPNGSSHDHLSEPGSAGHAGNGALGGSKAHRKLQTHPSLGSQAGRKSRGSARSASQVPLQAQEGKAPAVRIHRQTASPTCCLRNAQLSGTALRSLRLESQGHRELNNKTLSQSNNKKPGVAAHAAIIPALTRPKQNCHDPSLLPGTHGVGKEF

[1] = molecular target: T2, Lethal of Scute (AS-C T3) (Drosophila melanogaster (Fruit fly), UniProt P09774); test: yeast one-hybrid, strain L40, β-galactosidase reporter
T2 sequence: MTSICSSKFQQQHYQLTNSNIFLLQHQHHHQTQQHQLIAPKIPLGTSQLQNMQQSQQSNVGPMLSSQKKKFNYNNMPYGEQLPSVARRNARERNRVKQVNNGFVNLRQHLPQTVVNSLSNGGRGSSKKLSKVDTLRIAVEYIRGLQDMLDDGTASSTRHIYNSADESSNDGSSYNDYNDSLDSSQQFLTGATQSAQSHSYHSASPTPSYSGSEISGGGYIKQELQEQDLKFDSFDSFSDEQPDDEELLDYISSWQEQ

VP16-I-mfc = molecular target: T3, VP16-I-mfc (mouse); test: yeast hybrid assay, strain L40, β-galactosidase reporter
T3 chain: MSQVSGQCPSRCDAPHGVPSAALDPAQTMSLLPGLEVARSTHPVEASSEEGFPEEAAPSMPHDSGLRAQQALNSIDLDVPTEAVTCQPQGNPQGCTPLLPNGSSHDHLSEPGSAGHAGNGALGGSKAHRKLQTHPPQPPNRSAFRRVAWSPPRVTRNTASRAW

[2] = molecular target: T4, Myogenin (full length, mouse) (mouse, UniProt P12979); test: yeast one-hybrid, strain L40, β-galactosidase reporter
[3] = molecular target: T2, Lethal of Scute (AS-C T3); test: as above; remark: listed apart in the source
[4] = molecular target: MyoD (full length, mouse) (mouse, UniProt P10085); test: cell-based or functional assay
[5] = molecular target: T4, Myogenin (full length, mouse); test: cell-based or functional assay
[6] = molecular target: T5, Myf5 (full length, mouse) (mouse, UniProt P24699); test: cell-based or functional assay
[7] = molecular target: T5, Myf5 (full length, mouse); test: column 'Interaction with Myf5' of Table 4 (yeast hybrid assay of Table 3)
[8] = molecular target: T5, Myf5 (full length, mouse); test: yeast hybrid assay, strain L40, β-galactosidase reporter
[9] = molecular target: T5, Myf5 (full length, mouse); test: yeast one-hybrid, strain L40, β-galactosidase reporter

B1: LexA-I-mfa (87-246) (other)
chain: QPQGNPQGCTPLLPNGSSHDHLSEPGSAGHAGNGALGGSKAHRKLQTHPSLGSQAGRKSRGSARSASQVPLQAQEDCCVHCILSCLFCEFLTLCNILLDCATCGSCSSEDSCLCCCCCGSGECADCDLPCDLDCGIVDACCESADCLEICMECCGLCFSS
With B1 the β-galactosidase activity (VP16-I-mfb) was 0.6 arbitrary units.

B2: LexA-I-mfb (other)
chain: MKALTARQQEVFDLIRDHISQTGMPPTRAEIAQRLGFRSPNAAEEHLKALARKGVIEIVSGASRGIRLLQEEEEGLPLVGRVAAGEPLLAQQHIEGHYQVDPSLFKPNADFLLRVSGMSMKDIGIMDGDLLAVHKTQDVRNGQVVVARIDDEVTVKRLKKQGNKVELLPENSEFKPIVVDLRQQSFTIEGLAVGVIRNGDWLMSQVSGQCPSRCDAPHGVPSAALDPAQTMSLLPGLEVARSTHPVEASSEEGFPEEAAPSMPHDSGLRAQQALNSIDLDVPTEAVTCQPQGNPQGCTPLLPNGSSHDHLSEPGSAGHAGNGALGGSKAHRKLQTHPSLGSQAGRKSRGSARSASQVPLQAQEGKAPAVRIHRQTASPTCCLRNAQLSGTALRSLRLESQGHRELNNKTLSQSNNKKPGVAAHAAIIPALTRPKQNCHDPSLLPGTHGVGKEF
In the case of B2, the binding result [1] is reported as “no binding”, the β-galactosidase activity (VP16-I-mfc) is reported as < 0.1 arbitrary units and the β-galactosidase activity [2] is reported as 0.4 arbitrary units. For the same binder, the β-galactosidase activity [3] was 0.9 arbitrary units.

B3: LexA-I-mfa (87-202) (other)
chain: QPQGNPQGCTPLLPNGSSHDHLSEPGSAGHAGNGALGGSKAHRKLQTHPSLGSQAGRKSRGSARSASQVPLQAQEDCCVHCILSCLFCEFLTLCNILLDCATCGSCSSEDSCLCCC
In the case of B3, the β-galactosidase activity (VP16-I-mfb) is reported as 0.2 arbitrary units and the β-galactosidase activity (VP16-I-mfc) is reported as < 0.1 arbitrary units.

B4: I-mfb (other)
chain: MSQVSGQCPSRCDAPHGVPSAALDPAQTMSLLPGLEVARSTHPVEASSEEGFPEEAAPSMPHDSGLRAQQALNSIDLDVPTEAVTCQPQGNPQGCTPLLPNGSSHDHLSEPGSAGHAGNGALGGSKAHRKLQTHPSLGSQAGRKSRGSARSASQVPLQAQEGKAPAVRIHRQTASPTCCLRNAQLSGTALRSLRLESQGHRELNNKTLSQSNNKKPGVAAHAAIIPALTRPKQNCHDPSLLPGTHGVGKEF
B4 was tested, and the “Relative CAT Activity (%), 4RCAT (10T/2 cells)” value (“Relative CAT Activity (%), 4RCAT” below) [4] was 95%, the “Relative CAT Activity (%), MCK-CAT (NIH3T3 cells)” value (shortened to “Relative CAT Activity (%), MCK-CAT”) [4] was 87% and the “Relative CAT Activity (%), MCK-CAT” value [5] was 101%. For the same binder, the “Relative CAT Activity (%), 4RCAT” value [6] was 105% and the “Relative CAT Activity (%), MCK-CAT” value [6] was 132%.

B5: LexA-I-mfc (other)
chain: MKALTARQQEVFDLIRDHISQTGMPPTRAEIAQRLGFRSPNAAEEHLKALARKGVIEIVSGASRGIRLLQEEEEGLPLVGRVAAGEPLLAQQHIEGHYQVDPSLFKPNADFLLRVSGMSMKDIGIMDGDLLAVHKTQDVRNGQVVVARIDDEVTVKRLKKQGNKVELLPENSEFKPIVVDLRQQSFTIEGLAVGVIRNGDWLMSQVSGQCPSRCDAPHGVPSAALDPAQTMSLLPGLEVARSTHPVEASSEEGFPEEAAPSMPHDSGLRAQQALNSIDLDVPTEAVTCQPQGNPQGCTPLLPNGSSHDHLSEPGSAGHAGNGALGGSKAHRKLQTHPPQPPNRSAFRRVAWSPPRVTRNTASRAW
For B5, the binding result [7] was “no binding”, the β-galactosidase activity (VP16-I-mfb) was < 0.1 arbitrary units and the β-galactosidase activity [8] was < 0.1 arbitrary units. The β-galactosidase activity [2] was 0.3 arbitrary units and the β-galactosidase activity [9] was 0.4 arbitrary units.

B6: LexA-I-mfa (other)
chain: MKALTARQQEVFDLIRDHISQTGMPPTRAEIAQRLGFRSPNAAEEHLKALARKGVIEIVSGASRGIRLLQEEEEGLPLVGRVAAGEPLLAQQHIEGHYQVDPSLFKPNADFLLRVSGMSMKDIGIMDGDLLAVHKTQDVRNGQVVVARIDDEVTVKRLKKQGNKVELLPENSEFKPIVVDLRQQSFTIEGLAVGVIRNGDWLMSQVSGQCPSRCDAPHGVPSAALDPAQTMSLLPGLEVARSTHPVEASSEEGFPEEAAPSMPHDSGLRAQQALNSIDLDVPTEAVTCQPQGNPQGCTPLLPNGSSHDHLSEPGSAGHAGNGALGGSKAHRKLQTHPSLGSQAGRKSRGSARSASQVPLQAQEDCCVHCILSCLFCEFLTLCNILLDCATCGSCSSEDSCLCCCCCGSGECADCDLPCDLDCGIVDACCESADCLEICMECCGLCFSS
B6 was tested, and the β-galactosidase activity (VP16-I-mfb) was 0.7 arbitrary units and the β-galactosidase activity (VP16-I-mfc) was 0.5 arbitrary units.

B7: LexA (other)
chain: MKALTARQQEVFDLIRDHISQTGMPPTRAEIAQRLGFRSPNAAEEHLKALARKGVIEIVSGASRGIRLLQEEEEGLPLVGRVAAGEPLLAQQHIEGHYQVDPSLFKPNADFLLRVSGMSMKDIGIMDGDLLAVHKTQDVRNGQVVVARIDDEVTVKRLKKQGNKVELLPENSEFKPIVVDLRQQSFTIEGLAVGVIRNGDWL
Binder B7 has a β-galactosidase activity [2] of 0.6 arbitrary units.

B8: I-mfa (other)
chain: MSQVSGQCPSRCDAPHGVPSAALDPAQTMSLLPGLEVARSTHPVEASSEEGFPEEAAPSMPHDSGLRAQQALNSIDLDVPTEAVTCQPQGNPQGCTPLLPNGSSHDHLSEPGSAGHAGNGALGGSKAHRKLQTHPSLGSQAGRKSRGSARSASQVPLQAQEDCCVHCILSCLFCEFLTLCNILLDCATCGSCSSEDSCLCCCCCGSGECADCDLPCDLDCGIVDACCESADCLEICMECCGLCFSS
B8 was tested, and the “Relative CAT Activity (%), 4RCAT” value [4] was 56%, the “Relative CAT Activity (%), MCK-CAT” value [4] was 27% and the “Relative CAT Activity (%), MCK-CAT” value [5] was 2%. For the same binder, the “Relative CAT Activity (%), 4RCAT” value [6] was 13% and the “Relative CAT Activity (%), MCK-CAT” value [6] was 9%.

B9: LexA-I-mfa (29-246) (other)
chain: MSLLPGLEVARSTHPVEASSEEGFPEEAAPSMPHDSGLRAQQALNSIDLDVPTEAVTCQPQGNPQGCTPLLPNGSSHDHLSEPGSAGHAGNGALGGSKAHRKLQTHPSLGSQAGRKSRGSARSASQVPLQAQEDCCVHCILSCLFCEFLTLCNILLDCATCGSCSSEDSCLCCCCCGSGECADCDLPCDLDCGIVDACCESADCLEICMECCGLCFSS
B9 gave a β-galactosidase activity (VP16-I-mfb) of 0.7 arbitrary units and a β-galactosidase activity (VP16-I-mfc) of 0.8 arbitrary units.

B10: I-mfc (other)
chain: MSQVSGQCPSRCDAPHGVPSAALDPAQTMSLLPGLEVARSTHPVEASSEEGFPEEAAPSMPHDSGLRAQQALNSIDLDVPTEAVTCQPQGNPQGCTPLLPNGSSHDHLSEPGSAGHAGNGALGGSKAHRKLQTHPPQPPNRSAFRRVAWSPPRVTRNTASRAW
With B10 the “Relative CAT Activity (%), 4RCAT” value [4] was 100%, the “Relative CAT Activity (%), MCK-CAT” value [4] was 100% and the “Relative CAT Activity (%), MCK-CAT” value [5] was 111%. For the same binder, the “Relative CAT Activity (%), 4RCAT” value [6] was 101% and the “Relative CAT Activity (%), MCK-CAT” value [6] was 106%.

B11: LexA-I-mfa (1-202) (other)
chain: MSQVSGQCPSRCDAPHGVPSAALDPAQTMSLLPGLEVARSTHPVEASSEEGFPEEAAPSMPHDSGLRAQQALNSIDLDVPTEAVTCQPQGNPQGCTPLLPNGSSHDHLSEPGSAGHAGNGALGGSKAHRKLQTHPSLGSQAGRKSRGSARSASQVPLQAQEDCCVHCILSCLFCEFLTLCNILLDCATCGSCSSEDSCLCCC
For B11, the β-galactosidase activity (VP16-I-mfb) was < 0.1 arbitrary units and the β-galactosidase activity (VP16-I-mfc) was < 0.1 arbitrary units.
